Laboratory results taken from US20170174769A1 (Regeneron, published 2017).
Where two headings read alike, the source gives them in different places.

T1: full-length human KLB on HEK293/hKLB/SRE-luc cells (human, UniProt Q86Z14 1-1044)
T1 construct: amino acids 1-1044 of NP_783864.1
T1 sequence: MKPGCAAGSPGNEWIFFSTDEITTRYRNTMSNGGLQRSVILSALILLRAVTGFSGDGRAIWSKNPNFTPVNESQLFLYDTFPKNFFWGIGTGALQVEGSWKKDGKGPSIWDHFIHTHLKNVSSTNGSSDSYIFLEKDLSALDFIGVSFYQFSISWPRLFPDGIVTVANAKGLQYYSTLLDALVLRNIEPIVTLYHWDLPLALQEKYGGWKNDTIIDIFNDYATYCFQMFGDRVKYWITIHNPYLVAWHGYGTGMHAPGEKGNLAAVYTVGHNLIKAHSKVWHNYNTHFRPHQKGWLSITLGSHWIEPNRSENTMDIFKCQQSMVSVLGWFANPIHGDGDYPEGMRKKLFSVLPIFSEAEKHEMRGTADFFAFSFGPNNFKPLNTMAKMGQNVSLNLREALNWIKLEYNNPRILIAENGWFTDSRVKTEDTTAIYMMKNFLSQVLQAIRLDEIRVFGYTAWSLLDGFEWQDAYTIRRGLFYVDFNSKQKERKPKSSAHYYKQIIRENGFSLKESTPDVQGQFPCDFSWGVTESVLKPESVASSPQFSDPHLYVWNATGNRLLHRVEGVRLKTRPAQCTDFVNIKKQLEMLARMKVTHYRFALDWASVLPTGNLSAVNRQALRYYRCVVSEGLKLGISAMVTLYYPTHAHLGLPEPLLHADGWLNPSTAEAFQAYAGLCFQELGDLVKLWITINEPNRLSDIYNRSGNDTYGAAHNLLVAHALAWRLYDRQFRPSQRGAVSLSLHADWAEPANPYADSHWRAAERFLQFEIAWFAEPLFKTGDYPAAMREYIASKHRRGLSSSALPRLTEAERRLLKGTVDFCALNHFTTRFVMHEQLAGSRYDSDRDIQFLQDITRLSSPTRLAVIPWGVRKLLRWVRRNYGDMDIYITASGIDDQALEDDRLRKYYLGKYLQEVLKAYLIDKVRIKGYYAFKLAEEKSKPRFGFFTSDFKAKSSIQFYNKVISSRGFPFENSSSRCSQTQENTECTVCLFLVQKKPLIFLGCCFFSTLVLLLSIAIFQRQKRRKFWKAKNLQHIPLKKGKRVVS


Key:
[1] = target: mouse KLB and mouse FGFR1c co-expressed on HEK293/mKLB/mFGFR1c/SRE-Luc cells (mouse); test: cell-based or functional assay
[2] = target: T2, full-length human FGFR1c on HEK293/hFGFR1c/SRE-luc cells (human, UniProt P11362 22-822); test: FACS on stable HEK293 cells
T2 construct: amino acids 1-733 of NP_075593
T2 sequence (P11362 other isoform, or with tags, fused parts or gaps limits assumed): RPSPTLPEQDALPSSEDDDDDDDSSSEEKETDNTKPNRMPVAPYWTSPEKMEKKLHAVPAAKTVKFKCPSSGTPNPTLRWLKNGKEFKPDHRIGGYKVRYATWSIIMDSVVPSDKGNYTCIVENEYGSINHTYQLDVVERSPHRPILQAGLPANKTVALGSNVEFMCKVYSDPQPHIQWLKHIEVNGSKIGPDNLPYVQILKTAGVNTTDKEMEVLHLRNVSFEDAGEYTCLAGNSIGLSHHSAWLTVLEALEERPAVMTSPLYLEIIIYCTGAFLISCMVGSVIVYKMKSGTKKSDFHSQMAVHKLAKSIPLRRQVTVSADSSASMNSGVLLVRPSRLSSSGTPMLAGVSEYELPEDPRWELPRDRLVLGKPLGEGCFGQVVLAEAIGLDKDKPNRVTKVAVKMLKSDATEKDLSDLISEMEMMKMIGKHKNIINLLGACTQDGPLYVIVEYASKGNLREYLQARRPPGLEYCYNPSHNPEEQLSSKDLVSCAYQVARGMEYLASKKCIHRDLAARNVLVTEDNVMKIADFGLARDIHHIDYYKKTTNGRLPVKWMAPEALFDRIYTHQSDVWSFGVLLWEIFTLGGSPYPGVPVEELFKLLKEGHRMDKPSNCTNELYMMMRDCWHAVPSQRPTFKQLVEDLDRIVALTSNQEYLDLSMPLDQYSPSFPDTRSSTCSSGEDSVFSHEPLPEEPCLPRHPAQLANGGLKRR
Protocol: (§1) To determine binding specificity of the monoclonal anti-KLB/FGFR1c antibodies, the antibodies were tested in a fluorescence-activated cell sorting (FACS) binding assay to cell lines expressing human FGFR1c, human KLB, and both human FGFR1c and human KLB. HEK293 cell lines were generated that stably express full-length human FGFR1c (hFGFR1c; SEQ ID NO:433) or full-length human KLB (hKLB; SEQ ID NO:434) or both human FGFR1c and human KLB, along with a luciferase reporter [SRE (serum response element)-luciferase, SA Bioscience, #CLS-010L]. The resulting cell lines, referred to as HEK293/hFGFR1c/SRE-luc, HEK293/hKLB/SRE-luc, and HEK293/hKLB/hFGFR1c/SRE-luc, respectively, were maintained in DMEM supplemented with 10% FBS, NEAA, penicillin/streptomycin, 1 μg/mL puromycin and […] hygromycin B, 1 μg/mL puromycin and 500 μg/mL G418, or all three antibiotics.
(§2) For the FACS analysis, HEK293 parental, HEK293/hFGFR1c/SRE-luc, HEK293/hKLB/SRE-luc, and HEK293/hKLB/hFGFR1c/SRE-luc cells were dissociated and plated onto 96-well v-bottom plates at 5 x 10⁵ cells/well in PBS containing 1% FBS. […] Cells were filtered and subsequently analyzed on a Hypercyte Flow Cytometer (Intellicyt Corp.). Unstained and secondary antibody alone controls were also tested for binding to all cell lines. The results were analyzed using FlowJo version 9.52 software and geometric mean (Geom. Mean) of fluorescence for viable cells was determined. Geom. mean of fluorescence for each antibody was then normalized to Geom. mean of unstained cells to obtain relative binding of antibody (binding ratios) per each cell type.

[3] = target: T1, full-length human KLB on …; test: FACS on stable HEK293 cells
Protocol: as §1, §2

[4] = target: T3, human KLB and human FGFR1c co-expressed on HEK293/hKLB/hFGFR1c/SRE-luc cells (human, UniProt Q86Z14 1-1044; P11362 22-822); test: FACS on stable HEK293 cells
T3 construct: two receptors co-expressed on one cell line; also called KLB/FGFR1c coreceptor; FGF21R
Protocol: as §1, §2

[5] = target: T3, human KLB and human FGFR1c co-expressed …; test: cell-based or functional assay
[6] = target: cell-surface human FGFR1c (amino acids 1-731 of NP_075594) with cell-surface human KLB on … (human, UniProt P11362 22-822); test: cell-based or functional assay
Sequence of cell-surface human FGFR1c (amino acids 1-731 of NP_075594) with cell-surface human KLB on … (P11362 22-822): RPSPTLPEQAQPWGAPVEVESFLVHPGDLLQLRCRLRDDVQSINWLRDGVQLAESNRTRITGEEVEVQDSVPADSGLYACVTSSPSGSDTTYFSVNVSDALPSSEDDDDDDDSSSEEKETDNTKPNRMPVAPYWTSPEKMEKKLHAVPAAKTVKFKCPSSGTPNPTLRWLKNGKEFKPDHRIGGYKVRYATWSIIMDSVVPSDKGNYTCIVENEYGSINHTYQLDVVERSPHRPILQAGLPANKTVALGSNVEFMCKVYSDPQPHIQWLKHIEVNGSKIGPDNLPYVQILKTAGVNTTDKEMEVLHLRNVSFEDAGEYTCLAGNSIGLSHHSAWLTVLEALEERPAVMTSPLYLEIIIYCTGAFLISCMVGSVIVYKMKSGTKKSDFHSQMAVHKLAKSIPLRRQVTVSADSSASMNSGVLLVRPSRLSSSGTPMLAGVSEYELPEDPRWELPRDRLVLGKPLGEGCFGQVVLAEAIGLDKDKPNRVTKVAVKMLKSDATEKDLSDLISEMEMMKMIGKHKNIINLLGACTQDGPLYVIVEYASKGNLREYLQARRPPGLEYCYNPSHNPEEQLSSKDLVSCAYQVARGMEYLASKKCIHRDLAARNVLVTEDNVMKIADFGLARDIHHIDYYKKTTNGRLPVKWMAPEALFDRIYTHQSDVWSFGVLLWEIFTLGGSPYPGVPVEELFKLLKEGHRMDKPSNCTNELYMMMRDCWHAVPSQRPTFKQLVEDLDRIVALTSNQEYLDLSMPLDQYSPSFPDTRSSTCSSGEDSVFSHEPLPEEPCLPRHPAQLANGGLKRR

[7] = target: T3, human KLB and human FGFR1c co-expressed …; test: cell-based or functional assay; remark: listed apart in the source
[8] = target: T2, full-length human FGFR1c on …; test: FACS on stable HEK293 cells, 33 nM
Protocol: For the FACS analysis, HEK293 parental, HEK293/hFGFR1c, HEK293/hFGFR1c/hKLB, and HEK293/mFGFR1c/mKLB cells were dissociated and plated onto 96-well v-bottom plates at 0.5×10⁶ cells/well in 2% FBS/PBS. […] Control mAb2 was tested at a concentration of 965 nM. After primary protein incubation cells were washed and incubated with 3.75 μg/mL fluorescently conjugated secondary antibodies for 30 minutes at 4° C. Cells were filtered and analyzed on Accuri™ 6 Flow Cytometer. Unstained and secondary antibody alone controls were also tested for all cell lines. The results were analyzed using FlowJo version 9.52 software and geometric mean (Geom. Mean) of fluorescence for viable cells were determined. Geom. mean of fluorescence for each antibody was then normalized to Geom. mean of unstained cells to obtain relative binding of antibody (binding ratios) per each cell type.

Binder	Maximum Inhibition (%) of 0.8 nM mFGF21 [1] [%]	binding ratio to unstained cells [2] [fold]	binding ratio to unstained cells [3] [fold]	binding ratio to unstained cells [4] [fold]	EC50, SRE-luc activation without ligand [5] [nM]	Maximum Activation (%) without ligand [5] [%]	% Activation [6] [%]	EC50, SRE-luc activation [6] [nM]	EC50, SRE-luc activation without ligand [7] [nM]	IC50, inhibition of 1 nM 6His-hFGF21 [7] [nM]	Maximum Activation (%) [7] [%]	Maximum Inhibition (%) [7] [%]	Maximum Activation (%) without ligand [1] [%]	MFI Ratio to unstained cells [8] [fold]
H2aM8091N (antibody, V domains shown, mouse IgG2 Fc (H2aM prefix); also called H2M8091N) VH: QVQLVQSGADMKKPGASVKVSCKASGYTFTTYGINWVRQAPGQGLEWMGWISAYSGITNYAQSFQGRVTMTTDTSTSTAYMELRSLRSDDTAVYYCARGGYNWATGDYFDYWGQGTLVTVSS VL: DIQMTQSPSTLSASIGDRVTITCRASQSISSWLAWYQQKPGKAPKFLIYKASSLASGVPSRFSGSGSGTEFTLTISSLQPDDFATYYCQQYDSYSPYTFGQGTKVEIK	90	1	8	37	3.6	1								
H2aM8092N (antibody, V domains shown, mouse IgG2 Fc (H2aM prefix); also called H2M8092N) VH: QVQLQESGPGLVKPSETLSLTCTVSGGSISSYYWSWIRQPPGKGLDWIGHIYYSGTTYYNPSLKSRVSISLDTSKNQFSLKLSSVTAADTAVYYCARHLRGYSSGREFDYWGQGTLVTVSS VL: DIQMTQSPSSLSASVGGRVSLTCRASQSIFSYLNWYQQKPGKAPKLLIYAASNLQSGVPSRFSGSGSGTDFTLTISSLQPEDFATYSCQQSYNIPYTFGQGTKLEIK		1	15	46	0.2	1	0.8	0.15	0.29	0.19	0.6	74		
H4H8880P (antibody, V domains shown, human IgG4 Fc (H4H prefix)) VH: EVQLVESGGGVVQPGGSLRLSCAASGFTFSLYAMSWVRQAPGKGLEWVSAISGSAHGAYYADSVKGRFTISRDNSKNSLYLQMNSLRAEDTAIYYCAKDLVIAVAGTFDYWGQGTLVTVSS VL: DIQMTQSPSSLSASVGDRVTITCRASQIISTYLNWYQQKPGKAPKILIYTASSLKSGVPSRFSGSGSGTDFTLTISSLQPEDFATYYCQQTYSSPRFTFGPGTKVDIK	16	2	14	32	0.054	1							2	
H1H8897P (antibody, V domains shown, H1H Fc prefix (human Fc)) VH: QVQLVESGGGLVKPGGSLRLSCAAAGFTFSDYYMSWIRQAPGQGLEWVSYISPSGSTTYYADSVQGRFTISRDNAKSSLYLQMNSLRAEDTAVYYCARTGIQLWSVYFDYWGQGTLVTVSS VL: not shown	50	1	1	8	19	1							3	
H1H8898P (antibody, V domains shown, H1H Fc prefix (human Fc)) VH: QVQLVESGGGLVKPGGSLRLSCAASGFIFSDYYMSWIRQAPGKGLDWISYISPSGSTIYYADSVKGRFTISRDNAKNSLYLQMNSLRADDTAVYYCARTGIQLWSVYFDYWGQGTLVTVSS VL: EIVMTQSPATLSVSPGERATLSCRASQSVGSNLAWYQQKPGQAPRLLIYGASTRANGIPARFSGSGSGTEFTLTISGLQSEDFAVYYCQQYNNWPTFGQGTKLEIK	29	1	1	8	8.9	3							2	
H2aM8098N (antibody, V domains shown, mouse IgG2 Fc (H2aM prefix)) VH: QLQLQESGPGLVKPSETLSLTCTVSGGSISSSNYYWDWIRQTPEKGLEWIGSIHYSGTSYYNPSLKSRVTISVDTSKNQFSLKLRSVTAADAAVYYCARQTSVYWYFDIWGHGTLVTVST VL: EIVLTQSPGTLSLSPGEGATLSCRASQSVRNNYLAWYQQKPGQAPRLLIYGASSRAIGIPDRFSGSGSGTDFTLTISRLEPKDFVVYYCQQYGGSLFTFGPGTKVDIK		1	11	23	23	1								
H1H8900P (antibody, V domains shown, H1H Fc prefix (human Fc)) VH: QVQLVESGGGVVQPGRSLRLSCVASGFTFSSYGMHWVRQAPGKGLEWVAVISFDGSNKYYADSVKGRFTISRDNSKNTLYLQMNSLRPADTAVYYCAKDRSNYYYFGMDVWGQGTTVTVSS VL: DIVMTQTPLSLPVTPGEPASISCRSSQSLLDSDDGNTYLDWYLQKPGQSPQLLIYTLSYRASGVPDRFSGSGSGTDFTLKISRVEAEDVGVYYCMQRIEFPLTFGGGTKVEIK		5	1	6	17	2	1.4	> 10		2.2		36		2
H4H8870P (antibody, V domains shown, human IgG4 Fc (H4H prefix)) VH: EVQLVESGGGVVRPGGSLRLSCAASGFKFDVYGMSWVRQLPGKGLEWVSGISWTGGSSGYADSVKGRFTISRDNGKKSLYLQMNSLRAEDTALYYCTREEDYWGQGTLVTVSS VL: not shown		5	4	4								10		
